The record followed here is patent US20250382372A1 (OXFORD UNIVERSITY INNOVATION, published 2025).

As usually defined, the Kd is the constant that tells how readily two partners part at equilibrium.

Experiment [1] deals with human CD1a expressed on cells (human) (UniProt P06126). In words: flow cytometry, ear skin cells of a CD1a transgenic mouse given antibody 116 (100 ug i.p. on days 0, 2 and 4; panel 'CD1a : OX116'), stained on day 5 with anti-CD1a SK9. For orientation: A flow cytometer gives signals particle by particle.
For experiment [2] the target is unchanged. In words: flow cytometry, ear skin cells of a CD1a transgenic mouse given isotype control (panel 'CD1a : iso'), stained with anti-CD1a SK9; cell population not named on the sheet.
Experiment [3] has the same target. In words: flow cytometry, ear skin cells of a CD1a transgenic mouse given isotype control (row 'CD1a : iso'), stained with anti-CD1a HI149; cell population not named on the sheet.
Experiment [4] shares this target. In words: flow cytometry, ear skin cells of a CD1a transgenic mouse given antibody 116 (100 ug i.p. on days 0, 2 and 4; row 'CD1a : OX116'), stained on day 5 with anti-CD1a HI149; the cloud of cells lies at the lower edge of the gate.
The target in experiment [5] is T1, Human CD1a/beta2m heterodimer (HEK293S, deglycosylated, zippers and tags cleaved) (human, UniProt P61769 21-119).
T1 construct: Protein of the crystal structures and of the Biacore 3000 SPR experiments; Carries endogenous lipids (CD1a-endo) or a loaded lipid (named under assay); also called CD1a-endo; CD1a loaded with a specific lipid
The experiment is described as follows: SPR (Biacore 3000): biotinylated OX16 scFv on a streptavidin chip, CD1a-SM24:1 (CD1a loaded with sphingomyelin 24:1) injected up to 1000 nM; 1:1 specific binding fit; unit from the legend paragraph 293. For orientation: In SPR one partner is held on a chip, and binding of the other changes the refractive index at the surface.
Method: (§1) Depending on the experiment biotinylated scFv molecules were coupled onto the chip surface until a total of 150 or 1000 response units per flow cell were achieved. […] Each lipid was solubilised up to 5-10 mM in 20 mM Tris pH8, 150 mM NaCl and 0.5% CHAPS. CD1a-endo was incubated at room temperature overnight with 15-40× molar excess of lipid. The mixture was subsequently purified by anion exchange chromatography using a MonoQ column (GE Healthcare). Fractions corresponding to lipid-loaded CD1a were pooled together and up-concentrated to 5 μM. Serial dilutions of CD1a up to a maximum concentration of 1 μM were injected for 60 s at 25 C in 20 mM Tris pH8, 150 mM NaCl buffer. The dissociation time between the injections was between 5 minutes up to 1 h. […] Each injection cycle consisted of a 60 s injection of 1 μM CD1a alone immediately followed by increasing concentrations of TCRs (0 to 50 μM) supplemented with 100 nM CD1a to prevent further dissociation of CD1a from the coupled Ab fragment. The runs were performed at 25 C in 20 mM Tris pH8, 150 mM NaCl, 0.5% BSA buffer. In all SPR experiments relative binding response was calculated by subtracting the non-specific response on a reference cell, where an unrelated protein was coupled. The binding curves were obtained by fitting the measured response to a 1:1 specific binding model in GraphPad.

Experiment [6] has as its target T1, Human CD1a/beta2m heterodimer (HEK293S, …). In words: SPR (Biacore 3000): biotinylated OX16 scFv on a streptavidin chip, CD1a-endo (CD1a with endogenous lipids) injected up to 1000 nM; response fitted to a 1:1 specific binding model; unit from the legend paragraph 293.
Method: as §1
Experiment [7] shares this target. The experiment is described as follows: SPR (Biacore 3000): biotinylated OX16 scFv on a streptavidin chip, CD1a-LPC (CD1a loaded with lysophosphatidylcholine) injected up to 1000 nM; 1:1 specific binding fit; unit from the legend paragraph 293.
Method: as §1
Experiment [8] has the same target. In words: SPR (Biacore 3000): biotinylated OX16 scFv on a streptavidin chip, CD1a-GD3 (CD1a loaded with GD3 ganglioside) injected up to 1000 nM; 1:1 specific binding fit; unit from the legend paragraph 293.
Method: as §1
In experiment [9] the target is T2, human CD1d expressed on HEK-293 cells (human, UniProt P15813 20-335; P61769 21-119).
T2 construct: whole, on cells; also called HEK - CD1d
The experiment is described as follows: flow cytometry, HEK-293.
Method: (§2) CD1a-specific antibodies were identified by flow cytometry. Binding to proteins expressed on HEK, CIR and MOLT4 cell lines was assessed. […] The C1R-CD1a, C1R-empty vector and MOLT4 cell lines were washed in 1×PBS on the day required. All cell lines were counted and resuspended in 1×PBS and then stained for 30 minutes at 37° C. using the DiI or DiO cellular stains (Invitrogen). Cells were washed with flow cytometry buffer (1% bovine serum albumin, 2 mM EDTA and 0.1% sodium azide in PBS) before mixing 2 DiI-stained and DiO-stained populations together. The cells (20 μl/well) were then added to dilutions of antibody sample (B cell culture supernatant, TAP supernatant, clone supernatant, purified antibody solution) (20 μl/well) and incubated for 1 hour at 4° C. in a flow cytometry assay plate, before being washed with flow cytometry buffer. 10 μl/well of Alexafluor647-conjugated goat anti-species IgG Fc-specific F(ab′)2 fragment (Jackson ImmunoResearch), diluted 1:2500 in flow cytometry buffer, was added and incubated at 4° C. for 30 minutes, followed by washing with wash buffer. The fluorescence intensity was then measured on an iQue screener PLUS.
(§3) HEK-293 cells were transiently transfected with human CD1a, CD1b, CD1c or CD1d and co-transfected with human β2M.

Experiment [10] concerns the target T3, human CD1b expressed on HEK-293 cells (human, UniProt P29016 18-333; P61769 21-119).
T3 construct: whole, on cells; also called HEK - CD1b
The experiment is described as follows: flow cytometry, HEK-293.
Method: as §2, §3

The target of experiment [11] is T4, human CD1c expressed on HEK-293 cells (human, UniProt P29017 18-333; P61769 21-119).
T4 construct: whole, on cells; also called HEK - CD1c
In words: flow cytometry, HEK-293.
Method: as §2, §3

For experiment [12], the target named is Cynomolgus monkey CD1a protein (Cynomolgus monkey). In words: ELISA, Ab 10 µg/ml. (In an ELISA, binding on a coated surface is turned into a signal by an enzyme label.)
Experiment [13] concerns the target Cynomolgus monkey CD1a expressed on HEK-293 cells (Cynomolgus monkey). The experiment is described as follows: flow, HEK-293, Ab 0.01 µg/ml.
For experiment [14], the target named is Cynomolgus monkey CD1a protein (Cynomolgus monkey). The experiment is described as follows: ELISA, Ab 0.1 µg/ml.
Experiment [15] has the same target. In words: ELISA, Ab 1 µg/ml.
Experiment [16] has the same target. The experiment is described as follows: ELISA, Ab 0.01 µg/ml.
Experiment [17] deals with Cynomolgus monkey CD1a expressed on HEK-293 cells (Cynomolgus monkey). In words: flow, HEK-293, Ab 0.1 µg/ml.
Experiment [18] shares this target. The experiment is described as follows: flow, HEK-293, Ab 10 µg/ml.
Experiment [19] shares this target. The experiment is described as follows: flow, HEK-293, Ab 1 µg/ml.
The target of experiment [20] is T1, Human CD1a/beta2m heterodimer (HEK293S, …). The experiment is described as follows: SPR (Biacore 3000): biotinylated OX116 scFv on a streptavidin chip, CD1a-SM24:1 (CD1a loaded with sphingomyelin 24:1) injected up to 1000 nM; 1:1 specific binding fit; unit from the legend paragraph 293.
Method: as §1
Experiment [21] has the same target. In words: SPR (Biacore 3000): biotinylated OX116 scFv on a streptavidin chip, CD1a-LPC (CD1a loaded with lysophosphatidylcholine) injected up to 1000 nM; 1:1 specific binding fit; unit from the legend paragraph 293.
Method: as §1
Experiment [22] has the same target. In words: SPR (Biacore 3000): biotinylated OX116 scFv on a streptavidin chip, CD1a-endo (CD1a with endogenous lipids) injected up to 1000 nM; 1:1 specific binding fit; unit from the legend paragraph 293.
Method: as §1
The target is the same in experiment [23]. The experiment is described as follows: SPR (Biacore 3000): biotinylated OX116 scFv on a streptavidin chip, CD1a-GD3 (CD1a loaded with GD3 ganglioside) injected up to 1000 nM; 1:1 specific binding fit; unit from the legend paragraph 293.
Method: as §1

Consider SK9 (antibody), for which the results for the CD1a+ (gate frequency, percent of plotted cells; unit not given) in [1] and in experiment [2] were 87.4 and 84.9, respectively.
Turning to HI149 (antibody), the CD1a+ (gate frequency, percent of plotted cells; unit not given) in [3] was found to be 82.2; in experiment [4] it was 46.6.

B1: OX16 scFv (scFv)
scFv: DAEVQLVESGGGLVKPGGSLKLSCAASGFTFSNYAMSWVRQTPEKRLEWVAAINSNGGSAYYPDTVKDRFTISRDNAKNTLYLQMSSLRSEDTALYYCARRFYYDYGWFAYWGQGTLVTVSSGGGGSGGGGSGGGGSDIVLTQSPASLSASVGETVTITCRASENIDSYLAWYQQKQGKSPQLLVYAATLLADGVPSRFSGSGSGTQYSLKINSLQSEDVARYYCQHYYSSPWTFGGGTKLEIKSGLEVLFQGPGSGLNDIFEAQKIEWHEHHHHHH
modifications: biotinylated on the C-terminal biotinylation tag (SPR only)
notes: The entry holds the leader, VH, Gly-Ser linker, VL, 3C site, BirA tag and His tag; For crystallisation the BirA and His tags were cut off with 3C protease; also called 16 ScFv full; single chain variable construct of OX16
Take B1: the Kd in [5] was determined as 860 nM; in experiment [6], 476 nM; in experiment [7], 1010 nM; in [8], 1270 nM.

B2: 110 (VR12112) (antibody, V domains shown)
VH: QSVEESGGRLVTPGTPLTLTCTVSGFSLSSYAMIWVRQAPGKGLEWIGIINSSDNTHYATWAKGRFTISKTSTTVDLKITSPTTEDTATYFCARDPYDYGYGWYFDLWGPGTLVTVSS
VL: AQVLTQTPSPVSAAVGGTVTINCQASQSVFNNKNLAWYQQKPGQPPKLLIYKASTLASGVSSRFKGSGSGTQFALTISGVQCDDAATYYCQGEFSCSSTDCVTFGGGTEVVVK
notes: V regions were 'cloned as either rabbit or mouse full length antibodies'; also called OX110; antibody 110
As for B2, the binding result in [9], in experiment [10] and in experiment [11] was “no binding (tested: 100 µg/ml)” throughout. Also, the Optical Density (OD) is 0.86 OD in experiment [12], 0.53 OD in experiment [14], 0.94 OD in experiment [15] and 0.22 OD in experiment [16]. Further, the Fluorescence Intensity Geomean (normalized to background) (fold over background) turned out to be 1.2 in [13], 3.3 in experiment [17] and 13.6 in experiment [18].

B3: 116 (VR12117) (antibody, V domains shown)
VH: QSVEESGGRLVTPGTPLTLTCTVSGFSLSNYAMSWVRQAPGKGLEWIGIIYTTGFTYYASWVKGRFTISKTSTTVDLKITSPTTEDTATYFCARGLATYVSPPTRLDLWGQGTLVTVSS
VL: AQVLTQTPSPVSAAVGGTVTINCQASQSIYNSKNLAWYQQKPGQPPKLLIYSASTLASGVPSRFKGSGSGTQFTLTISDLECDDAATYYCQGEFSCSSVDCATFGGGTEVVVK
notes: also called OX116
B3: the binding result in [9], in experiment [10] and in experiment [11] was “no binding (tested: 100 µg/ml)” throughout. The Optical Density (OD) in [12] was determined as 0.16 OD; in [14] it was 0.07 OD; in experiment [15] it was 0.14 OD; in experiment [16] it was 0.07 OD. Besides, the Fluorescence Intensity Geomean (normalized to background) (fold over background) is 0.8 in experiment [19], 1 in experiment [13], 1 in experiment [17] and 1.7 in experiment [18].

B4: OX116 scFv (scFv)
scFv: DAQSVEESGGRLVTPGTPLTLTCTVSGFSLSNYAMSWVRQAPGKGLEWIGIIYTTGFTYYASWVKGRFTISKTSTTVDLKITSPTTEDTATYFCARGLATYVSPPTRLDLWGQGTLVTVSSGGGGSGGGGSGGGGSAQVLTQTPSPVSAAVGGTVTINCQASQSIYNSKNLAWYQQKPGQPPKLLIYSASTLASGVPSRFKGSGSGTQFTLTISDLESDDAATYYCQGEFSCSSVDCATFGGGTEVVVKSGLEVLFQGPGSGLNDIFEAQKIEWHEHHHHHH
modifications: biotinylated on the C-terminal biotinylation tag (SPR only)
notes: The entry holds the leader, VH, linker, VL, 3C site, BirA tag and His tag; For crystallisation the BirA and His tags were cut off with 3C protease; also called OX116 Ab fragment
For the molecule B4, the Kd in experiment [20] was 529 nM; in experiment [21], 1520 nM; in [22], 483 nM; in experiment [23], 329 nM.

B5: 77A (VR11851) (antibody, V domains shown)
VH: QSVEESGGRLVTPGTPLTLTCTVSGFSLSSYAMSWVRQAPGKGLEWIGIISSSGTTYYASWAKGRFTISKTSTTVDLKITSPTTEDTATYFCARVDYYSSGWGGLWGPGTLVTVSS
VL: AVEMTQTPASMSAAVGGTVTIKCQASEDIYSNLAWYQQKPGQPPKLLIYGASTLASGVPSRFKGSGSGTEYTLTISGVQCDDAATYYCQCTYDTSSYGNTFGGGTEMVVE
notes: V regions were 'cloned as either rabbit or mouse full length antibodies'; also called OX77a; antibody 77a
B5: the binding result in [9], in experiment [10] and in experiment [11] was “no binding (tested: 100 µg/ml)” in each case. Further, the Optical Density (OD) in [12] was 0.52 OD; in experiment [14], 0.24 OD; in [15] it was 0.43 OD; in [16], 0.1 OD. Further, the Fluorescence Intensity Geomean (normalized to background) (fold over background) in [19] was determined as 10.6; in [13], 1.7; in [17], 5.7; in experiment [18], 1.4.

B6: 111 (VR12113) (antibody, V domains shown)
VH: QSVEESGGRLVTPGTPLTLTCTASGFSLSTYAMSWVRQAPGKGLEWIGIISSSGSTYYASWAKGRFTISKTSTTVDLKITSPTTEDTATYFCARETWYWLDLWGQGTLVTVSS
VL: AVEMTQTPASVSAAVGGTVTINCQASEDIYSNLAWYQQKPGQPPKLLIYGASTLASGVPSRFKGSGSGTEYTLTISGVQCDDAATYYCQCAYDSSSYGTPFGGGTEVVVK
notes: also called OX111
B6: the binding result in experiment [9], in [10] and in experiment [11] was “no binding (tested: 100 µg/ml)” in each case. The Optical Density (OD) in [12] amounted to 0.79 OD; in experiment [14] it was 0.66 OD; in experiment [15], 0.69 OD; in [16], 0.48 OD. Besides, the Fluorescence Intensity Geomean (normalized to background) (fold over background) in [19] came to 12.9; in experiment [13], 8.9; in experiment [17] it was 25.8; in [18], 16.3.
